Assay results taken from IntAct's records for PubMed 28776325.

How the values were obtained:
rab4a_human RAB4A [1] = target: rab4a_human RAB4A (UniProt P20338)
rab4a_human RAB4A [2] = target: rab4a_human RAB4A (UniProt P20338); remark: listed apart in the source

Chain of rab4a_human RAB4A (P20338 whole entry): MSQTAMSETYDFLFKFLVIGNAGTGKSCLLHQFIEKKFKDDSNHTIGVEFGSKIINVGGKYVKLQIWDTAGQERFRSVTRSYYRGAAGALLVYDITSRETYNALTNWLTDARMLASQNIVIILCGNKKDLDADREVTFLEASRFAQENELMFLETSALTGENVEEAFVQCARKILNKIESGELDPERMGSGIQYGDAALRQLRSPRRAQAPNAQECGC
Chain of Protein NDRG1 (Homo sapiens), Q92597 L146P (Q92597 whole entry L146P): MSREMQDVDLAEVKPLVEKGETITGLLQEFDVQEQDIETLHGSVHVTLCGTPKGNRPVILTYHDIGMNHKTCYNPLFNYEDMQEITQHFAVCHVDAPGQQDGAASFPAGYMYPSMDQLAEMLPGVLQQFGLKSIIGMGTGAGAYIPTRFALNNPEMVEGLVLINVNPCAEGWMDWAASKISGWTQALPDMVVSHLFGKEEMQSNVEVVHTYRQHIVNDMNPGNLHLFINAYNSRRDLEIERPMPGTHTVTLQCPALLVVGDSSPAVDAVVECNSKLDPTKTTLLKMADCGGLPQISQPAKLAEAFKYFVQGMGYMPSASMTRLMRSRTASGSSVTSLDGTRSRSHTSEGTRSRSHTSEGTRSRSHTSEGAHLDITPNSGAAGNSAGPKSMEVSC
Chain of Protein NDRG1 (Homo sapiens), Q92597 R234Q (Q92597 whole entry R234Q): as the sequence (Q92597 whole entry L146P) above, with P146L, R234Q counted along it

effect of a mutation on the interaction (rab4a_human RAB4A [1]) | effect of a mutation on the interaction (rab4a_human RAB4A [2]) | Substance
decreasing interaction strength | with no effect | Protein NDRG1 (Homo sapiens), Q92597 L146P
– | with no effect | Protein NDRG1 (Homo sapiens), Q92597 R234Q
